Laboratory results as given in publication PMC4045858, “Biochemical Characterization of Human Gluconokinase and the Proposed Metabolic Impact of Gluconic Acid as Determined by Constraint Based Metabolic Network Analysis” (PLoS ONE, 2014).

Key:
purified protein [1] = substrate: Nc1ncnc2c1ncn2[C@@H]1O[C@H](COP(=O)(O)OP(=O)(O)OP(=O)(O)O)[C@@H](O)[C@H]1O; assay: purified protein; format: biochemical, Homo sapiens; conditions: gluconate as fixed co-substrate, 0.65 mM NADP+, 100 mM phosphate, 40 mM NaCl, 2.5 mM MgCl2, pH 7.2, 0.25 µM enzyme
purified protein [2] = substrate: O=C(O)[C@H](O)[C@@H](O)[C@H](O)[C@H](O)CO; assay: purified protein; format: biochemical, Homo sapiens; conditions: 1 mM ATP, 0.65 mM NADP+, 100 mM phosphate, 40 mM NaCl, 2.5 mM MgCl2, pH 7.2, 0.25 µM enzyme

B1: human GntK (gluconokinase isoform I, C9orf103) (Homo sapiens) (protein)
chain: MAAPGALLVMGVSGSGKSTVGALLASELGWKFYDADDYHPEENRRKMGKGIPLNDQDRIPWLCNLHDILLRDVASGQRVVLACSALKKTYRDILTQGKDGVALKCEESGKEAKQAEMQLLVVHLSGSFEVISGRLLKREGHFMPPELLQSQFETLEPPAAPENFIQISVDKNVSEIIATIMETLKMK
notes: dimer, also tetramer
Purified protein [1]
  Km: 343.8 ± 13.9 µM
  Vmax: 144 µM/min
  kcat: 9.5 ± 0.5 s⁻¹
  kcat/Km: 28000 ± 2000 M⁻¹ s⁻¹
Purified protein [2]
  Km: 106.4 ± 18.5 µM
  Vmax: 138 µM/min
  kcat: 9.3 ± 0.5 s⁻¹
  kcat/Km: 89000 ± 13000 M⁻¹ s⁻¹
